Data on 17 sequences can be found in the DeepSol protein solubility set.

This data set can be described thus: soluble on expression in E. coli; label from the status in PepcDB or PDB records.
Consider “MGHHHHHHSHMGKKIKKEVEPPPKDVFDPLMIESKKAATVVLMLNSPEEEILAKACEAIYKFALKGEENKTTLLELGAVEPLTKLLTHEDKIVRRNATMIFGILASNNDVKKLLRELDVMNSVIAQLAPEEEVVIHEFASLCLANMSAEYTSKVQIFEHGGLEPLIRLLSSPDPDVKKNSMECIYNLVQDFQCRAKLQELNAIPPILDLLKSEYPVIQLLALKTLGVIANDKESRTMLRDNQGLDHLIKILETKELNDLHIEALAVIANCLEDMDTMVQIQQTGGLKKLLSFAENSTIPDIQKNAAKAITKAAYDPENRKLFHEQEVEKCLVALLGSENDGTKIAASQAISAMCENSGSKDFFNNQGIPQLIQLLKSDNEEVREAAALALANLTTCNPANANAAAEADGIDPLINLLSSKRDGAIANAATVLTNMAMQEPLRLNIQNHDIMHAIISPLRSANTVVQSKAALAVTATACDVEARTELRNSGGLEPLVELLRSKNDEVRKHASWAVMVCAGDELTANELCRLGALDILEEVNVSGTRKNKFSEAAYNKLLNNNLSLKYSQTGYLSSSNIINDGFYDYGRINPGTKLLPLKEL”, for which the “soluble on expression in E. coli” value is on record as “not soluble”.

Take “MDSNLMSSVSTSAILGGENFADLFAESLKSQDMKSGEVISAEVVRVDHNFVVVNAGLKSEALIPLEEFLNDQGELEVQPGDFVSVAIDSLENGYGDTILSRDRAKRLSAWLQLEQALENGELVTGTITGKVKGGLTVMTNGIRAFLPGSLVDLRPVKDTTPYEGKTLEFKVIKLDRKRNNVVLSRRQVLEASMGEERQKLLETLHEGAVVKGVVKNITDYGAFVDLGGIDGLLHITDMAWRRVRHPSEVLQVGQEVEAKVLKFDQEKSRVSLGVKQLGEDPWVGLARRYPQGTRLFGKVTNLTDYGAFVEVEAGIEGLVHVSEMDWTNKNVDPRKVVTLGEEVEVMVLEIDEDRRRISLGMKQCRQNPWEEFATNFKRGDKVRGAIKSITDFGVFVGLPGGIDGLVHLSDLSWTESGEEAVRNFKKGDELEAVVLGIDTEKERISLGIKQLEGDPFNNFVATHDKGAVVPGTIKSVEPKGAVITLSVDVEGYLRASEISSGRVEDATTVLKAGENIEAMIVNIDRKARSIQLSIKARDNAETAETIQRMSEASASSGTTNLGALLKAKLDQQRNDGLEHHHHHH”: the “soluble on expression in E. coli” value is on record as “not soluble”.

With “MYPLNIDGEELYLRDLKINDLPNLLKWYNNIDDFSLATGVYKPITLKEILERYFKCQSSSKDFFAGIYIRKSGEMIGVLKGWLDCEKDLSAWINSIIIDPGFQRKGYGSKTVNLFIRHVKECCNVKRVYLSVAEENFKGMSFWKQQSFREVKKISKDRDSVSKCKSIVIMCREI”, the “soluble on expression in E. coli” value is “not soluble”.

For the sequence “MRGFAQVWHGLREKKRAECTPLNAFLTYVTLPWNSILNDLLSERQKRPILTFEFDAPAHNHD”, the “soluble on expression in E. coli” value was “not soluble”.

On to “MVKTMKCKFCDKKSYIKLKSPKMYLCKEHFVEYFENKVKKSIDKYKMLSKDEKILVAVSGGKDGHAAAWVLKKLGYNIELFHINLGIEGFSEESLKAVKELAEKLEVPLHVVNLKDITGKTMEDIRGKKCSICGTTKRYLMNKFGYENGFDVIVTGHNLDDEVSFILNNLFNWNIRYLAKHEPVLPAHDKFLKKVKIFFEIEEELILKYAEAEEIPYTTVECKYAERAITLKHRAYLNELEKERPGIKYQFLSGYMKNRHLFKVEEEDFQFRECEVCGMTSAGKICSFCRVWKLYKKKKENRN”, for which the “soluble on expression in E. coli” value is “soluble”.

For the sequence “SKVMTLKDAIAKYVHSGDHIALGGFTTDRKPYAAVFEILRQGITDLTGLGGAAGGDWDMLIGNGRVKAYINCYTANSGVTNVSRRFRKWFEAGKLTMEDYSQDVIYMMWHAAALGLPFLPVTLMQGSGLTDEWGISKEVRKTLDKVPDDKFKYIDNPFKPGEKVVAVPVPQVDVAIIHAQQASPDGTVRIWGGKFQDVDIAEAAKYTIVTCEEIISDEEIRRDPTKNDIPGMCVDAVVLAPYGAHPSQCYGLYDYDNPFLKVYDKVSKTQEDFDAFCKEWVFDLKDHDEYLNKLGATRLINLKVVPGLGYHIDMTKE”, the “soluble on expression in E. coli” value was “soluble”.

Turning to “MPMFTSFDHQMMSRAIELAWRGRFTTSPNPNVGCVITRGEQIVGEGFHFRAGEPHAEVHAMRQAGELTRGATAYVTLEPCSHYGRTPPCAEGLIKAGVAKVICAMQDPNPQVAGKGVQMLRDAGIEVEVGLLEADARVLNRGFLKRMETGMPFVQLKMAASLDGQTALANGKSQWITSPAARKDVQRFRAQASAILSTSQTVLADNASLAVRWYDLPSSVQAQYAEADLRQPLRVILDRQHQLHPELALYQTPSPVLRVASENAELCISAENGKLDLRELLALLAQQHNVNQLWVEAGSQLAQSLIEQKLVDEIILYLAPKLMGSDGRGLFGALGLTEMAEAIELKIEDCRMVGADLRIIATPKTKD”, the “soluble on expression in E. coli” value was “not soluble”.

As to “MSLMKITSVDIIDVANDFASATSKWRPVVVKINTDEGISGFGEVGLAYGVGASAGIGMAKDLSAIIIGMDPMNNEAIWEKMLKKTFWGQGGGGIFSAAMSGIDIALWDIKGKAWGVPLYKMLGGKSREKIRTYASQLQFGWGDGSDKDMLTEPEQYAQAALTAVSEGYDAIKVDTVAMDRHGNWNQQNLNGPLTDKILRLGYDRMAAIRDAVGPDVDIIAEMHAFTDTTSAIQFGRMIEELGIFYYEEPVMPLNPAQMKQVADKVNIPLAAGERIYWRWGYRPFLENGSLSVIQPDICTCGGITEVKKICDMAHVYDKTVQIHVCGGPISTAVALHMETAIPNFVIHELHRYALLEPNTQTCKYNYLPKNGMYEVPELPGIGQELTEETMKKSPTITVKEGHHHHHH”, the “soluble on expression in E. coli” value was “soluble”.

On to “MGSDKIHHHHHHMVIENAMNIQFVLKDFSTFGGVERIQYNLAKKFKNDGHNVSFYILNGDSVALDTSHEFIIHKGSKSGFITFLFEIIKLRNNIYKNRIDVVIAAKEQANIAAFFATIFTKVSTIYTRHSALNVSEQRINERSVLLIYSLLTLSKGKVVTVSHDLKYSLLKSLPWGKDKIHVCPNPVLTESIYLKSLQPITDFKLPLSYICSVGRLTRTKGFDVLIQAYKQCITKELNFPDLVIAGSGEEYASLVKLTQELNVADKVHFLGHIDNPYVLMKNSSGFVLSSRNEGLPTVLIEAIALGTNVVSTDCLTGPREILDGGRIGKLVPVEDVRSLAEAMLTLPLHKLSESEIREMDRYSLEQSAIAYFKLFTKKSH”, for which the “soluble on expression in E. coli” value is recorded as “not soluble”.

Regarding “MIKEFCAENLTLLPTLDAGQVSRVELCDNLAVGGTTPSYGVIKEACQLLHDKKISVATMIRPRGGDFVYNDLELKAMEEDILKAVEAGSDALVLGLLTTENQLDTDAIEQLLPATQGLPLVFHMAFDHIPTDHQHQALDQLIDYGFVRVLTHGSPEATPITDNVEQLKSLVTYANKRIEIMIGGGVTAENCQNLSQLTGTAIVHGTKIILEHHHHHH”, the “soluble on expression in E. coli” value is recorded as “soluble”.

In the case of “MAHHHHHHMTSQTTTAVFSSDLQTFIVTKYDPLLSIVKELNDKLQNSEKDKYHLEKRIIKLEKQMVLLLEKLEVSDILFDNEEKEKKEEPRKNQKIESEENLLAPWLFSCQLGTPLSSLQVLLEFNVNNTIELNVKLWKREEDMWINVLEDISSNYNNYLPDSLSLLDLRKAARKCLLNICMNEILIVLRNVPGKSQALYNTTTMTLVAILASAIYEAWKRIELTDPVSLGRIVLVLDGMNCINKKREDVGSRLRAGNKKLKIEPLN”, the “soluble on expression in E. coli” value is recorded as “not soluble”.

In the case of “MDAVSPLDAYERAVQRGFQPDQAQLQAVQQLQACYLALTESRGQAQGVYLWGPVGRGKTWLMDRFFESLNVPARRQHFHHFMRWVHKRMFELMGTPQPLTVVAKELARDVRVMCFDELFVTDIGDAVILGGLLQVMFEQGVVLVCTSNQPPDQLYSHGHNRERFLPAVAAIQKYMKVVAVDGGEDHRLHPGQLHQRYWVAQAGQPSALQGIFEALSAGQPVHDSQVMLGYRSINVVEHSDTAVWCRYRDLCEQPLAAMDFIALCDRFSVILLSEVPVLGAVQREAKIARGTEDGVEQVTAGDRELPQLSPNDDGVRRFIALVDECYDRRIPLYVEAPVPMDQLYTQGYLSFAFRRTLSRLQEMQLERFTESLEHHHHHH”, the “soluble on expression in E. coli” value was “not soluble”.

For the sequence “MARRISSQGKVTISVDEYSSNPTQAFTHYNINQSRFQPPHVHMVEPLPYDAPKSVGHTRFVCVSDTHSRTDGIQMPFGDVLLHTGDFTELGLPSEVKKFNDWLGGLPYEYKVVIAGNHELTFDKDFMAELIKQDYYRFPSVSKLRSEDFDDVQSLLTNCVYLQDSEVTIKGFRIYGAPWTPWFNGWGFNLPRGQSLLDKWNQIPEDVDILMTHGPPLGFRDWVPKELQRVGCVELLNTVQKRVRPKLHAYGGIHEGYGIMTDGYTTFINSSTCTVSFQPTNPPIIFDLPNPGNS”, the “soluble on expression in E. coli” value is “not soluble”.

In the case of “MNDSAPRRVRVRAPELIGKGGWLNTGDKQYTLADLRGRIVVLDFWTFCCINCLHVLDELRELEEKHRDTVVIIGVHSPKFVHEAEHQAVVDAVERYGVEHPVLDDPELATWKQYAVRAWPTLVVIDPEGYVVAQHAGEGHAHAIAALVAELEAEHEAKGTLRRGDGPYVAPEPEPTVLRFPGKALLLPSGNFLVSDTTRHQLVELAADGESVVRRIGSGIRGFADGPADAASFSEPQGMTLLDEDVVVVADTVNHALRRLDLATGEVTTLAGTGRQWWQGSPASGPAREVDLSSPWDVAVFGGRVWIAMAGGAPAVDVRPGGGDGRGRGGHDERGAGRRTGLEHHHHHH”, the “soluble on expression in E. coli” value is “soluble”.

Turning to “MAVPPAYSDLGKSAKDIFSKGYGFGIVKLDLKTKSQNGVEFNTSGSTNTDTGKAAGSLETKYKLKDLGLSFNQKWNTDNMLTTEVSVEDQLAEGLKVALDTSFVPNTGKKSGKLKTSYKREFVNVSCDLDFEGPVVHSAAVLGYEGWLLGYLVAFDTAKSKLVQNNFALGYKTGDFQLHTNVNDGAEFGGSVYQKVSDQLETAVTLAWTAGSNNTRFGVAAKYQLDKDASLSAKVNNASLIGIGYTQSLRPGVKLTLSALVDGKNFNTGGHKVGLGFELEA”, the “soluble on expression in E. coli” value is reported as “not soluble”.

Take “MGSDKIHHHHHHMGYRTLKSIFHEHNESKMKEEYTKRFNSLASFNTNINIIPMENGKKVNDLEYPLFFMVTKNLSKKQELISINSRKIDRALNSLPYAAREQYFNDLLIDELQSTNEIENVFSTKQEIAHALNNQASEFLKFRGLVDQYKEIELNKKIKVDNVRDIRAIYDKLVSNEINEQDKLDGELFRKNFVGVHDGSTNKYIHVGLQPETKIVEYIGEMLTFLKYFDAPQPFKIMASHYLFEYIHPFYDGNGRVGRFIIAKLLSDYYDNYTALTFSYVINRNKSKYYKAFMTASNHLNCGDLTEFIDTMLELLIAGQERILDELIPKMDATEKLTLYLTSHYKQIDYEFLYLLSMDKLFGNKRNRLTLIDLENILGVGRVKINNTIKKYDNYLVKIKSRPIIYEISDEFLNSIIK”: the “soluble on expression in E. coli” value was “not soluble”.

With “GSFTMDDISPSELKTILHSKRANLYYLQHCRVLVNGGRVEYVTDEGRHSHYWNIPIANTTSLLLGTGTSITQAAMRELARAGVLVGFCGGGGTPLFSANEVDVEVSWLTPQSEYRPTEYLQRWVGFWFDEEKRLVAARHFQRARLERIRHSWLEDRVLRDAGFAVDATALAVAVEDSARALEQAPNHEHLLTEEARLSKRLFKLAAQATRYGEFVRAKRGSGGDPANRFLDHGNYLAYGLAATATWVLGIPHGLAVLHGKTRRGGLVFDVADLIKDSLILPQAFLSAMRGDEEQDFRQACLDNLSRAQALDFMIDTLKDVAQRSTVSA”, the “soluble on expression in E. coli” value is listed as “soluble”.
